The values below come from the nanobody polyreactivity screen of Harvey et al. (2022).

This series in a line: yeast display, Sf9 membrane polyspecificity reagent, FACS + sequencing; frameworks hold sequencing errors. The gist of the method:
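Sorting gates, low and high (top ~1%), were placed on anti-HA fluorescence to track expression and on streptavidin fluorescence to track reagent binding. A clone's polyreactivity label is taken from the gate it came out of. The reagent was 10% biotinylated, detergent-solubilized Sf9 membrane, applied for 1 hour at 4 °C to galactose-induced yeast display cells.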
For “QVQLVESGGGLVQAGGSLSLSCAASGRTFIRNAMGWYRQAPGKERELVAAINSGGITNYADSVKGRFTISRDNAKNTVYLQMNSLKPEDTAVYYCNARQVLFGLYLRAYPFEYWGQGTQVTVSS”, the “polyreactivity (PSR sort gate)” value was “low polyreactivity”.

Take “QVQLVESGGGLVQAGGSLSLSCAASGRTFKPYAMGWYRQAPGKERELVAVITSNGSSTYYADSVKGRFTISRDNAKNTVYLQMNSLKPEDTAVYYCATKLTYTLTSGAYAYDYWGQGTQVTVSS”: the “polyreactivity (PSR sort gate)” value is recorded as “low polyreactivity”. To “QVQLVESGGGLVQAGGSLSLSCAASGRTFYTNAMGSSRQAPGKERELVAAISLRDVNTYYADSVKGRFTISRDNAKNTVYLQMNSLKPEDTAVYYCAARSRRRFDWGQGTQVTVSS” belongs “high polyreactivity”; to “QVQLVESGGGLVQAGGSLSLSCAASGSIFAYKAMGWYRQAPGKEREFVAVITRSDDSTYADSVKGRFTISRDNAKNNVYLQMNSLKPEDTAVYYCAVVANYVYSKYDYWGQGTQVTVSS”, “low polyreactivity”; to “QVQLVESGGGLVQAGGSLSLSCAASGSIFGIYAMGWYRQAAGKDRELVATINSRGTTNYADSVKGRFTISRYNAKNTVYLQMNSLKPEDTAVYYCAARFSTYRGKLKGYEYWGQGTQVTVSS”, “high polyreactivity”. To “QVQLVESGGGLVQAGGSLSLSCAASGSIFGSYAMGWYRKAPGKERELVAAITGSGVSTYYADSVKGRFTISRDNAKYTVYLQMNSLKPEDTAVYYCAAKRYYARSAYGSYFIVGYWGQGTQVTVSS” belongs “high polyreactivity”; to “QVQLVESGGGLVQAGGSLSLSCAASGSIFLRNAMGWYRQAPGKERELVAAITWDSGDTYYADSVKGRFTISRDHAKNTVYLQMNSLKPEDTAVYYCNTLGLSSDWGQGTQVTVSS”, “low polyreactivity”. Regarding “QVQLVESGGGLVQAGGSLSLSCAASGSIFLRNAMGWYRQAPGKETEYVASITWNGASTSYADSVMGRFTISRDNAKNTVYLQMNSLKPEDTAVYYCAARDSQYGGPGMDYWGQGTQVTVSS”, the “polyreactivity (PSR sort gate)” value is on record as “low polyreactivity”. To “QVQLVESGGGLVQAGGSLSLSCAASGSIFNPYGKGWYRQAPGKERELVAAITSSGGDTYYADSVKGRFTISRDNAKNTVYLQMNSLKPEDTAVYYCAATGLPGYYAYDYWGHGTQVTVSS” belongs “low polyreactivity”; to “QVQLVESGGGLVQAGGSLSLSCAASGSIFNRYTMGWYRQAPGKERELVADISKSGTRTYYADSVKGRFTISRDNAKNTVYLQMNSQKPEDTSVYYCAKSSVAVYQTRYDYWGQGTQVNVSS”, “high polyreactivity”. For the sequence “QVQLVESGGGLVQAGGSLSLSCAASGSIFPGNAMGWYRQAPGKERELVAVIDFSGASTYYADSVKGRFTISRDNAKNTVYLQMNSLKPEDTADYWGQGTQVTVSS”, the “polyreactivity (PSR sort gate)” value is given as “low polyreactivity”. To “QVQLVESGGGLVQAGGSLSLSCAASGSIFQPYVMGWYRQAPGKEREFVATIRYSGGITYADSVKGRFTISRDNSKNTVYLQMNSLKPVVTAVYYCACYCYCYWGQGTQVNVSS” belongs “low polyreactivity”. To “QVQLVESGGGLVQAGGSLSLSCAASGSIFRHNVMGWYIPAPGKERELVAAISGGGGRTYYADSVKGRFTISRDNAKNTDYLQMKSLKPEDTAVYYCYAYVGLSEGDYWGQGTHVTVSS” belongs “high polyreactivity”. To “QVQLVESGGGLVQAGGSLSLSCAASGSIFRYYAMGWYRQAPGKERELVAAITSGGRTNYADSVKGRFTISRDNAKNTVYLQMNSLKREDTAVYYCNKCYNAVWRYRGDYWGQGTQVTVSS” belongs “high polyreactivity”. For “QVQLVESGGGLVQAGGSLSLSCAASGSIFVIYTMGWYRPAPGKERELVAGITWSTGNTYYADSVKGRFTISRDNAKNTFYLQMNSLKPEDTAVYSCAARTTSRWRSGAYYYWGQGTQVTVSS”, the “polyreactivity (PSR sort gate)” value is “high polyreactivity”. To “QVQLVESGGGLVQAGGSLSLSCAASGSIFVYKAMGWYRPAHGKERELVAAISSSGGSTYYADSVKGRFTISRDNAKNTVYLQMNSLKPEDTAVYYCAAEAVRKVPSYYSYAYYYWGQGTQVTVSS” belongs “high polyreactivity”.
